Here are results for twelve variants from the supplement of paper PMC7125110.

± gives the standard error. Variants at the floor of the assay were thinned out.

Sequences and labels used below:
B1: glmS ribozyme (parent)
chain: AUAAAAGCGCCAGAACUACAGAAAUGUAGUUGACGAGGAGGAGGUUUAUCGAAUUUUCGGCGGAUGCCUCCAAA

Conditions in all cases: with glucosamine-6-phosphate
In data set [1] the parent is B1. The data set can be described thus: self-cleavage kobs at 40 uM GlcN6P; higher = faster cleavage; RNA array. The essentials: (§1)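 Barcoded ribozyme variants on sequenced MiSeq chips were transcribed in situ by E. coli RNA polymerase and followed at 37 °C through a hybridised Cy3 probe. Glucosamine-6-phosphate at 40 μM to 10 mM in HEPES/KCl/Mg(OAc)2 buffer was flowed in, and tiles were imaged over ~14 h. Signals were normalised to baseline and to non-cleaving reference variants, and per-tile medians were fit to one- or two-exponential decays to give kobs. Weighted Michaelis–Menten fits across concentrations gave kcat and KM.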

The variants in data set [2] derive from B1. The data set is described as follows: self-cleavage kobs at 640 uM GlcN6P; higher = faster cleavage; RNA array. A digest of the protocol:
as §1

Variants of B1 are the subject of data set [3]. The data set is described as follows: self-cleavage kobs at 2500 uM GlcN6P; higher = faster cleavage; RNA array. The essentials:
as §1

The variants in data set [4] derive from B1. The data set is described as follows: self-cleavage kobs at 10000 uM GlcN6P; higher = faster cleavage; RNA array. The essentials: as §1
Variants of B1 are the subject of data set [5]. The data set is described as follows: self-cleavage kobs at 160 uM GlcN6P; higher = faster cleavage; RNA array. The essentials: as §1

Consider AUAAAAGCGCCAGAACUACAGAAAUGUAGUUGACGAGUAGGAGGUUUAUCGAAUUUGCGGCGGAUGUCUUCAAA, for which, in the data set with glucosamine-6-phosphate [1], the “self-cleavage kobs at 40 uM GlcN6P” value stood at 8e-05 ± 2.6e-05 s⁻¹. In the data set with glucosamine-6-phosphate [2], the “self-cleavage kobs at 640 uM GlcN6P” value turned out to be 0.000114 ± 4.7e-05 s⁻¹. In the data set with glucosamine-6-phosphate [3], the “self-cleavage kobs at 2500 uM GlcN6P” value stood at 0.0013 ± 0.00059 s⁻¹. Besides, in the data set with glucosamine-6-phosphate [4], the “self-cleavage kobs at 10000 uM GlcN6P” value was found to be 4.29e-05 ± 1.9e-05 s⁻¹.

With AUAAAAGAGCCAGAACUACAGAAAUGUAGUUGACGCGGAGGAGGUUUAUCGAAUUUUCGGCGGAUGCCUCCAAA, in the data set with glucosamine-6-phosphate [1], the “self-cleavage kobs at 40 uM GlcN6P” value was below 1e-05 s⁻¹. In addition, the “self-cleavage kobs at 160 uM GlcN6P” value with glucosamine-6-phosphate [5] is below 1e-05 s⁻¹. Further, the “self-cleavage kobs at 2500 uM GlcN6P” value with glucosamine-6-phosphate [3] was below 1e-05 s⁻¹. In the data set with glucosamine-6-phosphate [4], the “self-cleavage kobs at 10000 uM GlcN6P” value is below 1e-05 s⁻¹.

Regarding AUAAAAGCGCCAGAACUACAGAAAUGUAGUUGACGAGGUGGAGGUUUAUCGAAGGUUCGGCGGAUGCCUCCAAA, the “self-cleavage kobs at 40 uM GlcN6P” value with glucosamine-6-phosphate [1] turned out to be 0.000181 ± 6.2e-05 s⁻¹. In the data set with glucosamine-6-phosphate [2], the “self-cleavage kobs at 640 uM GlcN6P” value stood at 0.00525 ± 0.0012 s⁻¹. Moreover, the “self-cleavage kobs at 2500 uM GlcN6P” value with glucosamine-6-phosphate [3] worked out at 0.0171 ± 0.0034 s⁻¹.

Take AUAAAAGCGCCAGAACUACAGAAAUGUAGUUGACGAGGAGCAGGGUUAUCGAAUUUCCAGUGGAUGCCUCCAAA: in the data set with glucosamine-6-phosphate [1], the “self-cleavage kobs at 40 uM GlcN6P” value is below 1e-05 s⁻¹. In the data set with glucosamine-6-phosphate [2], the “self-cleavage kobs at 640 uM GlcN6P” value was below 1e-05 s⁻¹. Further, the “self-cleavage kobs at 2500 uM GlcN6P” value with glucosamine-6-phosphate [3] is below 1e-05 s⁻¹.

Take AUAAAAGCGCCAGUACUACAGAAAUGUAGUUGACGAGGAGGAAGUUUAUCGAAUUUUCGGGGGAAGCCUCCAAA: the “self-cleavage kobs at 40 uM GlcN6P” value with glucosamine-6-phosphate [1] was below 1e-05 s⁻¹. Moreover, the “self-cleavage kobs at 10000 uM GlcN6P” value with glucosamine-6-phosphate [4] was below 1e-05 s⁻¹.

On to AUAAAAGCGCCAGAACUACAGAAAUGUAGUCGAGGAAGAGGUGGUUAAUCGUAUUUUCGGCGGAUGCCUCCAAA, for which the “self-cleavage kobs at 40 uM GlcN6P” value with glucosamine-6-phosphate [1] was below 1e-05 s⁻¹. Moreover, the “self-cleavage kobs at 10000 uM GlcN6P” value with glucosamine-6-phosphate [4] is below 1e-05 s⁻¹.

Regarding AUAAAAGCGACAGAACUACAGAAAUGUAGUAGACGAGGAGGAGGUUUAUCGAAUUUUGGGCGGAUGACUCCAAA, the “self-cleavage kobs at 40 uM GlcN6P” value with glucosamine-6-phosphate [1] worked out at 4.23e-05 ± 1.8e-05 s⁻¹. Further, the “self-cleavage kobs at 640 uM GlcN6P” value with glucosamine-6-phosphate [2] is 0.00013 ± 3.4e-05 s⁻¹. Further, the “self-cleavage kobs at 2500 uM GlcN6P” value with glucosamine-6-phosphate [3] was found to be 0.000317 ± 0.00016 s⁻¹. For the same variant, the “self-cleavage kobs at 10000 uM GlcN6P” value with glucosamine-6-phosphate [4] was determined as 3.62e-05 ± 1.5e-05 s⁻¹.

On to AUAAAAGCUCCAGAACUACAGAAAUGUAGUUUACGAGGAGUAGGUUUAUCGACUUUUCGGCGGAUGCCUCCAAA, for which, in the data set with glucosamine-6-phosphate [1], the “self-cleavage kobs at 40 uM GlcN6P” value was below 1e-05 s⁻¹. Moreover, the “self-cleavage kobs at 10000 uM GlcN6P” value in the data set with glucosamine-6-phosphate [4] is below 1e-05 s⁻¹.

With AGAAAAGCGCCAGAACUACAGAAAUGUAGUUGGCGAGGAGGAGGUUUAUCGAAUUUUCGGCGGAUGCCUCCAAA, the “self-cleavage kobs at 40 uM GlcN6P” value with glucosamine-6-phosphate [1] is below 1e-05 s⁻¹. Moreover, the “self-cleavage kobs at 10000 uM GlcN6P” value with glucosamine-6-phosphate [4] is below 1e-05 s⁻¹.

As for AUAAAAGGGCCAGAACUACAGAAAUGUAGCUGACGAGGAGGAGGUUUAUCGAAUUUUCGGCGGAUGCCUCCAAA, in the data set with glucosamine-6-phosphate [1], the “self-cleavage kobs at 40 uM GlcN6P” value is below 1e-05 s⁻¹. Besides, the “self-cleavage kobs at 2500 uM GlcN6P” value with glucosamine-6-phosphate [3] was below 1e-05 s⁻¹. The “self-cleavage kobs at 10000 uM GlcN6P” value with glucosamine-6-phosphate [4] was below 1e-05 s⁻¹.

Regarding AUAAAAGCGCCAGAACUACAGAAAUGUAGUUGACGAGGAGGGGGUUUAUCGAAUUUUCGGCGGAUGCCUCAAAA, in the data set with glucosamine-6-phosphate [1], the “self-cleavage kobs at 40 uM GlcN6P” value was 0.000338 ± 7.5e-05 s⁻¹. Further, in the data set with glucosamine-6-phosphate [5], the “self-cleavage kobs at 160 uM GlcN6P” value turned out to be 0.000606 ± 0.00021 s⁻¹. The “self-cleavage kobs at 640 uM GlcN6P” value with glucosamine-6-phosphate [2] was determined as 0.00207 ± 0.00033 s⁻¹. Moreover, the “self-cleavage kobs at 2500 uM GlcN6P” value with glucosamine-6-phosphate [3] came out at 0.00316 ± 0.0013 s⁻¹. Also, the “self-cleavage kobs at 10000 uM GlcN6P” value with glucosamine-6-phosphate [4] was determined as 0.0105 ± 0.003 s⁻¹.

For the variant AUAAAAGCGCCAGACCUACAGAAAUGUAGUUGACGAGGGGGAGGUUUAUCGAAUUUUCGGCGGAUGCCUCCAAA, the “self-cleavage kobs at 40 uM GlcN6P” value in the data set with glucosamine-6-phosphate [1] came to 0.000398 ± 9.2e-05 s⁻¹. Moreover, the “self-cleavage kobs at 640 uM GlcN6P” value in the data set with glucosamine-6-phosphate [2] is 0.00224 ± 0.00049 s⁻¹. The “self-cleavage kobs at 2500 uM GlcN6P” value in the data set with glucosamine-6-phosphate [3] worked out at 0.00476 ± 0.0014 s⁻¹. Besides, in the data set with glucosamine-6-phosphate [4], the “self-cleavage kobs at 10000 uM GlcN6P” value stood at 0.013 ± 0.0025 s⁻¹.
